From the DeepSol protein solubility set

Assay: soluble on expression in E. coli; label from the status in PepcDB or PDB records

Sequence | soluble on expression in E. coli
MDESFDSSVVPGSLTSDDRAIFNEQTLKNGDENSKSSLEVMANCVYLANSTILRERKVIPAEYFQDFQVYGDVSGYTLRQDIPEGRSVSSKLLASHDAIRQKLLQKLAIVVEESLNTNPVETFVWTFVYDSTTSASAEIGYGGRKSKFVVNYLNMDDTAQQFCKMFSELRNVLSLLRPLPRGLIPSMKVAYRGEPEFVPGFQQVDDFVNPEQINLGAVSFPHGNGFQFAYASKFMVEQPSAIRPPVEVSHFEDDLLNSTITPIEVVRDNTMNCAENPELDEIYFSPGRQEVRMDEDVANESIRCNPSMASEMMVLQSEYNVLIADNDEVPMVVERERSPIVKAAKKRSTRAPAVPITPTEPASPVESPVKEQPQKAPKAQMRRSSKRTTKNNERCEQKEEEPIVNPKRRSARRLVPPVEVDEQPEEQNDDDAQNSLQIDSDAQNSLQIDSDAIITSPEKRNESKSAIPEEAADLDNTTSEKQESSTARYGVSNTSINRKKPDPVANPVSEEAQVDLANGSIPDKRPRKRKYGRVSSILDVADLPTDDTVEEDVRESPIYGRVPSILDVARAEENDAQNDAQDAQNEIAVEGLADLSIDTEQHEEAAPINVTGHQSESVPIIVTEHQSEEAQTVVTEQPAGAASVIAAERHYGRVSSILDVAGSFADVDPSGAAPAIATERHYGRVSSILDVAGSLSDVDPQEDTESSTQNQSTSKKFKPNPPKAMRYGQSPNMPSRRGN | not soluble
MDEVNVIARITGVSRVRTFERDGREGRFISLDIMDATGSTTYTLWNNDVNLVEELGLKEGDAVKILWAQPRRRDDKVTLTHTSLTRVVPGLEHHHHHH | not soluble
MDEYSPKRHDIAQLKFLCETLYHDCLANLEESNHGWVNDPTSAVNLQLNELIEHIATFALNYKIKYNEDNKLIAQIDEYLDDTFMLFSSYGINTQDLQKWRKSGNRLFRCFVNATRANPVSLSCLEHHHHHH | not soluble
MDFGALPPEINSTRMYAGAGAAPLMAAGATWNGLAVELSTTASSVESVIMQLTTEQWLGPASMSMVVAAQPYLAWLTYTAESAAHAAAQAMASAAAFEAAFAMTVPPAEVAANRALLAALVATNVLGQNTPAIMATEAHYGEMWAQDALAMYGYAASSAAAGRLNPLITPSQTANMAGLAGQAAAVSHAAAASTVQQVGLGSLISNLPNAVMGFASPLTSAADAAGLGGIIQDIEELLGITFVQNAINGAVNTTAWFVMATIPNAVFLGHAFAALNPATVTAAADAVPAAAAAAGLAHTVTPVGVGGASLTASLGEASSVGGLSVPAGWSTAAPAMTSGTTALEGSGWAVPEEAGPVAAMPGMAGISGAAKGAGAYAGPRYGFKPIVMPKQVVV | not soluble
MDGIAEPVIIKDDASRFVFINDAACDLLGKDRNQLIGRTDHDILPGEQADRIVSLDRIVLSTSEGHELEEQITTPDGTQRTLLTKKRCVSIPAGSTQEKFVVVTIVDIT | not soluble
MDHQFGYGVEVTGLSPSVTHNDLIDFFSFSGTIQDIDIVRSGEQACTAYVMFKDSYSQETAVLLTGATILDQRVCITRWGQHHEEFDFWNATSRGFEDESDSQHYAQRSEFNAGEAVTKAQEVVKIMLATGFVLGKDALSKAKAFDESHGVSAAAVARVSQLEQRIGLTDKIFTGLEAVRMTDQRYHVSDTAKSAVFATGRTAAAAATSVVNSSYFSSGALWLSGALERAAKAASDLGTRGSRQ | soluble
MDHSLNSLNNFDFLARSFARMHAEGRPVDILAVTGNMDEEHRTWFCARYAWYCQQMMQARELELEH | soluble
MDHSPWQRCLSVLQEELPAQQFSMWIRPLQCVINDNVMTLYAPNRFVLDWVRDKYVNRINELLTINESNNPLLLRFDVGSKPTIDNSVTNSPVSRNTGGNESLFAKATSAPKVAEPESNIPKKTNVRLNYTFENFVEGKSNQLARAAASQVADNPGTAYNPLFIYGGTGLGKTHLLHAVGNGILLNKPNAKIAYMHSERFVQDMVRALQNNAMEKFKQYYRSVDALLIDDIQFFAGKERTQEEFFHTFNALLEGNQQVILTSDRYPKEINGVDDRLKSRFGWGLTLAIEPPELETRVAILKRKAQESQINLADEVAFFIAKRLRSNVRELEGALNRVIANANFTGRAITIDFVREALRDLLALQDKLVTIDNIQRTVAEYYKIKIADLLSKRRNRSVARPRQIAMALSKELTNHSLPEIGDAFGGRDHTTVLHACRKVKSLREETHDIKEDYSNLIRTLSSLEHHHHHH | not soluble
MDIFMTCSICGFTHNCICAHQPNLSSNIEFALLYHENERHKLTNTGKLLLNSLSNTTEYTWQRKEPPQALISKINQADTETWLLFPSKEPVLSSDFHHRHDPSKKQLFVLLDATWQEAKKMVNKSPWLKALPCLEIQTDEASRYHLRRNQSEGNLCTCEAGIEVLEMVKEPENAQALSCYYDQFLTVFQAERSGHKFTSLEHHHHHH | soluble
